Measured values reported in the supplement of paper PMC9112550, “Optimization of the antimicrobial peptide Bac7 by deep mutational scanning” (BMC Biology, 2022).

Tested on: Escherichia coli TOP10
Assay: shrunken log2 fold change of peptide-encoding DNA abundance (4.5 h post-induction vs induction); higher = less antimicrobial activity (less host growth inhibition)
Settings: time post-induction: 4.5 h; library: site-saturation at positions 5, 18, 19, 20
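Note: peptides expressed intracellularly from a pBAD plasmid library in pooled LB shake-flask culture, induced with 0.3% L-arabinose, DNA abundance read by NGS, three biological replicates, DESeq2 with apeglm shrinkage.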

Sequence	shrunken log2 fold change
RRIRKRPPRLPRPRPRPMWNPRP	0.232
RRIRRRPPRLPRPRPRPYCFPRP	-0.37
RRIRHRPPRLPRPRPRPKGRPRP	0.0526
RRIRLRPPRLPRPRPRPWWHPRP	0.0812
RRIRYRPPRLPRPRPRPVDMPRP	-0.0154
RRIRFRPPRLPRPRPRPPYVPRP	-0.36
RRIRTRPPRLPRPRPRPETNPRP	0.402
RRIRFRPPRLPRPRPRPWYTPRP	-0.38
RRIRDRPPRLPRPRPRPHYCPRP	-0.0438
RRIRTRPPRLPRPRPRPDVNPRP	0.21
RRIRQRPPRLPRPRPRPICHPRP	-0.14
RRIRDRPPRLPRPRPRPTYDPRP	-0.208
RRIRCRPPRLPRPRPRPNDMPRP	-0.328
RRIRIRPPRLPRPRPRPHRLPRP	-0.122
RRIRERPPRLPRPRPRPSVWPRP	0.0602
RRIRKRPPRLPRPRPRPRTQPRP	0.605
RRIRGRPPRLPRPRPRPAEMPRP	0.621
RRIRMRPPRLPRPRPRPWDIPRP	0.232
RRIRSRPPRLPRPRPRPAITPRP	-0.0725
RRIRSRPPRLPRPRPRPKDCPRP	0.456
RRIRWRPPRLPRPRPRPVQTPRP	0.459
RRIRMRPPRLPRPRPRPVNVPRP	0.0663
RRIRKRPPRLPRPRPRPMKRPRP	0.138
RRIRVRPPRLPRPRPRPITTPRP	-0.304
RRIRRRPPRLPRPRPRPSCHPRP	-0.0344

Sequence	shrunken log2 fold change
RRIRGRPPRLPRPRPRPIHIPRP	0.304
RRIRYRPPRLPRPRPRPCQLPRP	-0.00957
RRIRMRPPRLPRPRPRPLWPPRP	0.616
RRIRWRPPRLPRPRPRPIISPRP	-0.14
RRIRRRPPRLPRPRPRPCCMPRP	-0.18
RRIRDRPPRLPRPRPRPLYEPRP	-0.0254
RRIRCRPPRLPRPRPRPWLIPRP	-0.564
RRIRPRPPRLPRPRPRPEHCPRP	-0.034
RRIRFRPPRLPRPRPRPIALPRP	-0.222
RRIRFRPPRLPRPRPRPIWDPRP	-0.319
RRIRLRPPRLPRPRPRPLCDPRP	-0.284
RRIRTRPPRLPRPRPRPPEAPRP	0.205
RRIRQRPPRLPRPRPRPPNEPRP	0.266
RRIRTRPPRLPRPRPRPIYVPRP	-0.34
RRIRSRPPRLPRPRPRPHESPRP	-0.15
RRIRHRPPRLPRPRPRPARCPRP	0.252
RRIRWRPPRLPRPRPRPGCEPRP	0.901
RRIRERPPRLPRPRPRPPNRPRP	-0.289
RRIRARPPRLPRPRPRPSLKPRP	-0.0764
RRIRLRPPRLPRPRPRPMWWPRP	1.19
RRIRHRPPRLPRPRPRPAMTPRP	-0.00367
RRIRGRPPRLPRPRPRPWRMPRP	-0.000462
RRIRDRPPRLPRPRPRPWNSPRP	-0.237
RRIRKRPPRLPRPRPRPDKPPRP	0.128
RRIRWRPPRLPRPRPRPEVKPRP	0.21

Sequence	shrunken log2 fold change
RRIRIRPPRLPRPRPRPSTMPRP	-1.18
RRIRHRPPRLPRPRPRPGRQPRP	-0.0906
RRIRRRPPRLPRPRPRPDEFPRP	0.138
RRIRARPPRLPRPRPRPEYQPRP	0.118
RRIRVRPPRLPRPRPRPPKGPRP	0.18
RRIRNRPPRLPRPRPRPDCCPRP	0.00539
RRIRVRPPRLPRPRPRPWVMPRP	-0.212
RRIRKRPPRLPRPRPRPKMLPRP	0.185
RRIRIRPPRLPRPRPRPGFSPRP	-0.0749
RRIRYRPPRLPRPRPRPHWSPRP	-0.318
RRIRRRPPRLPRPRPRPPDFPRP	-0.079
RRIRMRPPRLPRPRPRPRHGPRP	0.83
RRIRTRPPRLPRPRPRPCCQPRP	0.0313
RRIRHRPPRLPRPRPRPSACPRP	-0.0435
RRIRPRPPRLPRPRPRPHEIPRP	-0.192
RRIRFRPPRLPRPRPRPALYPRP	-0.155
RRIRRRPPRLPRPRPRPRMNPRP	0.545
RRIRSRPPRLPRPRPRPNNQPRP	-0.104
RRIRWRPPRLPRPRPRPHESPRP	-0.262
RRIRPRPPRLPRPRPRPVPDPRP	0.00557
RRIRIRPPRLPRPRPRPQIPPRP	-0.216
RRIRARPPRLPRPRPRPNKEPRP	-0.211
RRIRWRPPRLPRPRPRPEEWPRP	-0.0123
RRIRMRPPRLPRPRPRPAVKPRP	0.0878
RRIRARPPRLPRPRPRPHMKPRP	-0.188

Sequence	shrunken log2 fold change
RRIRNRPPRLPRPRPRPTFGPRP	-0.084
RRIRYRPPRLPRPRPRPPMIPRP	-1.39
RRIRHRPPRLPRPRPRPRICPRP	0.0205
RRIRTRPPRLPRPRPRPAMCPRP	0.131
RRIRSRPPRLPRPRPRPHVYPRP	-0.355
RRIRDRPPRLPRPRPRPNQWPRP	0.151
RRIRGRPPRLPRPRPRPKMGPRP	1.21
RRIRDRPPRLPRPRPRPGQHPRP	-0.121
RRIRHRPPRLPRPRPRPVIAPRP	-0.134
RRIRPRPPRLPRPRPRPTPPPRP	0.477
RRIRRRPPRLPRPRPRPFFLPRP	0.0467
RRIRYRPPRLPRPRPRPVHPPRP	-0.186
RRIRERPPRLPRPRPRPAWIPRP	0.121
RRIRARPPRLPRPRPRPMIQPRP	0.0771
RRIRKRPPRLPRPRPRPPDQPRP	0.802
RRIRARPPRLPRPRPRPACKPRP	0.558
RRIRWRPPRLPRPRPRPGEPPRP	0.271
RRIRTRPPRLPRPRPRPRYHPRP	-0.573
RRIRNRPPRLPRPRPRPIQYPRP	-0.377
RRIRWRPPRLPRPRPRPSAEPRP	1.14
RRIRFRPPRLPRPRPRPARLPRP	0.175
RRIRRRPPRLPRPRPRPIYVPRP	-0.114
RRIRIRPPRLPRPRPRPRPEPRP	0.11
RRIRTRPPRLPRPRPRPLNWPRP	-0.246
RRIRRRPPRLPRPRPRPIINPRP	-0.207

Sequence	shrunken log2 fold change
RRIRTRPPRLPRPRPRPDSAPRP	0.0773
RRIRKRPPRLPRPRPRPSLAPRP	0.614
RRIRFRPPRLPRPRPRPNLMPRP	-0.144
RRIRHRPPRLPRPRPRPRDWPRP	0.645
RRIRTRPPRLPRPRPRPHWIPRP	-0.569
RRIRGRPPRLPRPRPRPPPHPRP	1.26
RRIRGRPPRLPRPRPRPPPMPRP	1.19
RRIRGRPPRLPRPRPRPYWTPRP	-0.0522
RRIRIRPPRLPRPRPRPLILPRP	-0.895
RRIRCRPPRLPRPRPRPSKGPRP	-0.212
RRIRCRPPRLPRPRPRPTWAPRP	0.118
RRIRPRPPRLPRPRPRPPGLPRP	0.268
RRIRNRPPRLPRPRPRPIRSPRP	-0.389
RRIRYRPPRLPRPRPRPLTWPRP	-0.333
RRIRARPPRLPRPRPRPTEYPRP	-0.103
RRIRHRPPRLPRPRPRPHMYPRP	-0.0666
RRIRSRPPRLPRPRPRPECVPRP	0.673
RRIRSRPPRLPRPRPRPHIFPRP	-0.197
RRIRFRPPRLPRPRPRPIMCPRP	-0.273
RRIRTRPPRLPRPRPRPICVPRP	-0.289
RRIRLRPPRLPRPRPRPFVIPRP	-0.214
RRIRKRPPRLPRPRPRPKGTPRP	0.00171
RRIRQRPPRLPRPRPRPMHRPRP	-0.0558
RRIRPRPPRLPRPRPRPAGGPRP	0.269
RRIRVRPPRLPRPRPRPHSWPRP	0.0662

Sequence	shrunken log2 fold change
RRIRTRPPRLPRPRPRPGNPPRP	-0.34
RRIRDRPPRLPRPRPRPGNFPRP	-0.0885
RRIRERPPRLPRPRPRPNGDPRP	-0.0249
RRIRARPPRLPRPRPRPRVWPRP	0.827
RRIRMRPPRLPRPRPRPAMLPRP	1.22
RRIRIRPPRLPRPRPRPSHDPRP	-0.527
RRIRIRPPRLPRPRPRPRRWPRP	0.592
RRIRWRPPRLPRPRPRPWQDPRP	-0.00695
RRIRFRPPRLPRPRPRPAHPPRP	0.267
RRIRVRPPRLPRPRPRPQSPPRP	-0.221
RRIRPRPPRLPRPRPRPIAFPRP	-0.00102
RRIRTRPPRLPRPRPRPQNDPRP	-0.749
RRIRTRPPRLPRPRPRPYRGPRP	-0.519
RRIRFRPPRLPRPRPRPWTSPRP	-0.0445
RRIRERPPRLPRPRPRPPVYPRP	0.00394
RRIRDRPPRLPRPRPRPAGKPRP	0.0578
RRIRHRPPRLPRPRPRPEHCPRP	0.0155
RRIRWRPPRLPRPRPRPKNPPRP	0.152
RRIRFRPPRLPRPRPRPWLRPRP	-0.0551
RRIRLRPPRLPRPRPRPVQQPRP	0.053
RRIRIRPPRLPRPRPRPHLLPRP	0.0103
RRIRERPPRLPRPRPRPYREPRP	-0.00865
RRIRWRPPRLPRPRPRPGHEPRP	0.0994
RRIRPRPPRLPRPRPRPPRCPRP	0.408
RRIRDRPPRLPRPRPRPGPHPRP	0.132
